Data: patent US7148021B2, “Human zona pellucida proteins and methods of their use in diagnosing male infertility” (Eastern Virginia Meical School, priority 2001, dated 2006)

B1: rhZP3: recombinant human zona pellucida protein 3 made by human ovarian cell line PA-1, correctly glycosylated (protein, listed as Homo sapiens)
chain: MELSYRLFICLLLWGSTELCYPQPLWLLQGGASHPETSVQPVLVECQEATLMVMVSKDLFGTGKLIRAADLTLGPEACEPLVSMDTEDVVRFEVGLHECGNSMQVTDDALVYSTFLLHDPRPVGNLSIVRTNRAEIPIECRYPRQGNVSSQAILPTWLPFRTTVFSEEKLTFSLRLMEENWNAEKRSPTFHLGDAAHLQAEIHTGSHVPLRLFVDHCVATPTPDQNASPYHTIVDFHGCLVDGLTDASSAFKVPRPGPDTLQFTVDVFHFANDSRNMIYITCHLKVTLAEQDPDELNKACSFSKPSNSWFPVEGPADICQCCNKGDCGTPSHSRRQPHVMSQWSRSASRNRRHVTEEADVTVGPLIFLDRRGDHEVEQWALPSDTSVVLLGVGLAVVVSLTLTAVILVLTRRCRTASHPVSASE
modifications: recombinant, glycosylated, made in PA-1 cells
notes: recombinant human zona pellucida protein 3 made by human ovarian cell line PA-1, correctly glycosylated

Assays:
sperm [1] = assay: Percentage of acrosome-reacted sperm as determined by FITC-PSA; type: cell-based, human; details: NT 30 ng/ml, calcium ionophore 5 μM, rhZP3 30 ng/ml, solubilized zona 0.5 ZP/μl, Mean (±SEM); for % Acrosome reacted-sperm: n = 29 ejaculates
Text: The acrosome reaction was studied in response to purified rhZP3, natural solubilized human ZP and the calcium ionophore.

sperm [2] = assay: Weighted acrosome scoring of fluorescence-stained sperm morphology types; type: cell-based, human; details: for % of Type I (intact acrosome): column drawing 1; for % of Type II (damaged acrosome): column drawing 2; for % of Type III (equatorial segment): column drawing 3; for % of Type IV (no fluorescence in head): column drawing 4
Text: A representative example of this method is as follows. […] (See Arts et al, 1994 for further details useful for this example).
In a second step, each type is given a score. In this example, Type I has fluorescence in the acrosomal region, indicating intact acrosome; Type II has fluorescence in a clearly damaged acrosome; Type III has fluorescence in the equatorial segment; and Type IV has no detectable fluorescence in the head. Each type, in the representative example is given a score as follow. Type I has 0 points, Type II has 1 point, Type III has 1.5 points and Type IV has 2 points. Of course different numbers of types may be scored and different weighting systems may be used, depending on knowledge of the system used and the conditions and reagents used for scoring each type. In this example, the sperm are examined under a fluorescence microscope and the percentage of each category is recorded. To determine the total AR score, the percentage of each category type is multiplied by the appropriate point and added together as shown in the equation below and in […]

[3] = test system: sperm-zona pellucida binding; assay: Hemizona assay, inhibition of sperm-zona pellucida binding; type: cell-based, human
Text: Isolation and purification procedures A wide variety of isolation and purification procedures for ZP3, ZP2, ZP1 as whole proteins, glycosylated fragments, complexes, conjugates and as fusion proteins may be used in embodiments of the invention. […] Furthermore, data were obtained that establish the ability of rhZP3 to induce the sperm acrosomal reaction. […] Each of the techniques most preferably uses a human glycosylated ZP3 and/or ZP2 and/or ZP1.
This procedure was used to evaluate recombinant human ZP3 as described above.
The hemizona assay is employed as a parallel assay to evaluate the binding ability of GFP-rhZP3 coated agarose beads. An aliquot of semen is processed as described above. Both sperm and artificial zona are processed as described above. For each hemizona pair, the HZI was calculated as follows: (number of test sperm bound to the hemizona/number of fertile sperm bound to hemizona)×100. […]
A hemizona assay is to be carried out as a parallel assay to evaluate the binding ability of GFP-rhZP3 coated agarose beads. […] After capacitation, sperm sample are ready for use in a HZA. […] The number of sperm tightly bound to the outer surface are counted. For each hemizona pair, the HZI is calculated as follows: (number of test sperm bound to the hemizona/number of fertile sperm bound to hemizona)×100 (Burkman, et al.,1988). […]

[4] = test system: sperm-zona pellucida binding; details: hemizona assay; cited from earlier work
human sperm [5] = details: 30 ng/mL; cited from earlier work
human sperm [6] = assay: Acrosome reaction by rhZP3 after sperm capacitation time course; type: cell-based; details: 30 ng/mL, 4 hours capacitation
Experimental: The time course study of sperm capacitation in combination with rhZP3 was evaluated. After different periods of capacitation, sperm were treated with rhZP3 (30 ng/ml) for thirty minutes to trigger the acrosome reaction. […] In many embodiments with rhZP3 an approximate 4 hour capacitation time is preferred because at this time frame the sperm are 99% alive as compared to 86%, 82% and 66% of live sperm for 8, 12 and 24 hours of capacitation time respectively. Experiments were performed after 4 hours of capacitation. The ratio of acrosome-reacted spermatozoa increased by 1.5 fold, after incubation with 30 ng/mL rhZP3, as compared to controlled conditions. This increased activity is much stronger than the increased activity produced after incubation with rhZP3 made by CHO cells. The CHO cell product induced a similar percentage of acrosome reaction in human sperm following 24-hour sperm capacitation at a dose of 15–20 ng/μl (van Duin et al, 1994).

| Molecule | % Sperm viability (sperm [1]) | % Acrosome reacted-sperm (sperm [1]) [%] | AR percentage (sperm [2]) [%] | Score Type I (0 × %) (sperm [2]) | Score Type II (1 × %) (sperm [2]) | Score Type III (1.5 × %) (sperm [2]) | Score Type IV (2 × %) (sperm [2]) | Total AR score (sperm [2]) | % of Type I (intact acrosome) (sperm [2]) [%] | % of Type II (damaged acrosome) (sperm [2]) [%] | % of Type III (equatorial segment) (sperm [2]) [%] | % of Type IV (no fluorescence in head) (sperm [2]) [%] | hemizona index, in words [3] | minimally effective dose for sperm-zona pellucida binding inhibition [4] [ng/mL] | live acrosome-reacted sperm (human sperm [5]) | increase of ratio of acrosome-reacted spermatozoa compared to control conditions (human sperm [6]) [fold] |
| --- | --- | --- | --- | --- | --- | --- | --- | --- | --- | --- | --- | --- | --- | --- | --- | --- |
| CNc1ccc2oc(C[C@H]3O[C@@]4(CC[C@H]3C)O[C@H]([C@H](C)C(=O)c3ccc[nH]3)[C@H](C)C[C@H]4C)nc2c1C(=O)O [Calcium ionophore, reference compound] | 96.5 (2.0) % | 22.5 | 32 | 0 | 7 | 27 | 30 | 64 | 60 | 7 | 18 | 15 |  |  |  |  |
| B1 |  | 18.3 | 29 | 0 | 12 | 33 | 14 | 59 | 59 | 12 | 22 | 7 | dramatically decreasing the hemizona index | 30 | 19%±4.1% | 1.5 |
